# Laboratory results: patent US20160145333A1 (Amgen, published 2016)
# B1: CB1 antibody 10D10 (antibody, human IgG2, kappa, V domains shown)
# VH: QVQLQESGPGLVKPSQTLSLTCTVSGGSIRRGGDYWSWIRQHPGKGLEWIGYIYYSGSTNYNPSLKSRATISVDTSKNQFSLKLSSVTAADTAVYYCARDYDILTGYSYYYYGMDVWGQGTTVTVSS
# VL: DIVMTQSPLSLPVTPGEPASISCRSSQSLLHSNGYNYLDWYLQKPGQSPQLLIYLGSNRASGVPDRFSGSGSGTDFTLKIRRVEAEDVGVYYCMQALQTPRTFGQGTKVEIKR
# notes: Xenomouse (human) antibody; also called wild-type 10D10; WT HC / WT LC
# Key:
# [1] = biological target: T1, Human CB1 receptor (cannabinoid receptor-1), wild type (human, UniProt P21554 1-472); assay: cell-based or functional assay
# [2] = biological target: T2, Mouse CB1 receptor, wild type (mouse, UniProt P47746 1-473); assay: FACS on transfected cells
# T2 construct: also called mCB1; V5-mCB1
# [3] = biological target: T1, Human CB1 receptor (cannabinoid …); assay: method not given
# T1 sequence (P21554 whole entry): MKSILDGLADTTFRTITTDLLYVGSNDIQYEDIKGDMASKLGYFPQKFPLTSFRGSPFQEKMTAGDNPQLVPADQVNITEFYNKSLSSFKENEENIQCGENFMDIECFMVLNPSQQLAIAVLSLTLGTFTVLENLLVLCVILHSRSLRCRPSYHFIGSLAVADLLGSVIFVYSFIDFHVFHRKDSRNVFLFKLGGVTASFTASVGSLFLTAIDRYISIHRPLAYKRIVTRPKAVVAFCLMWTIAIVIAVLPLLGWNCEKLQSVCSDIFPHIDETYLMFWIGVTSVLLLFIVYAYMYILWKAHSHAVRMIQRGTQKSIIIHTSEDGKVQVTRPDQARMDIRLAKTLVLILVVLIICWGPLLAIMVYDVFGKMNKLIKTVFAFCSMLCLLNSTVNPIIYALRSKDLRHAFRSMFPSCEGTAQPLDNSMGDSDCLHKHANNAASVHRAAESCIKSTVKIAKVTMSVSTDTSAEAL
# T2 sequence (P47746 whole entry): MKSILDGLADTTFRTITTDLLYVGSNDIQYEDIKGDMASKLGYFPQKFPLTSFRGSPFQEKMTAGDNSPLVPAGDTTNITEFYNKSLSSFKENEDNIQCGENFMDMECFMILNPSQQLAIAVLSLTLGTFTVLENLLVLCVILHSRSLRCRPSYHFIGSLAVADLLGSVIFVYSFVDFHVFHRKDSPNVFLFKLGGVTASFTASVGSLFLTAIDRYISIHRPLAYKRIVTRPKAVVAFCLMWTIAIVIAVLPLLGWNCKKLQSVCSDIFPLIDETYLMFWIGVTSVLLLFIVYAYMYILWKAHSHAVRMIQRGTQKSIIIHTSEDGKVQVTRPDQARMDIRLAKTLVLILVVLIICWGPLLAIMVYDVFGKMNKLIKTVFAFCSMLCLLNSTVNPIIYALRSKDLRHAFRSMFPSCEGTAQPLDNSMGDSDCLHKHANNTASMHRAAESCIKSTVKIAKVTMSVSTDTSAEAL
binder,measurement,setting,value
B1,"IC50, GTP-Eu assay against anandamide",[1],10.1 nM
same,binding result,[2],no binding
same,Kd,[3],< 200 nM
